# “Also recorded” adds a separate entry of the source.
# T1: CD133 (Homo sapiens, UniProt O43490)
# T1 construct: endogenous in cells
# T1 sequence (O43490 20-865): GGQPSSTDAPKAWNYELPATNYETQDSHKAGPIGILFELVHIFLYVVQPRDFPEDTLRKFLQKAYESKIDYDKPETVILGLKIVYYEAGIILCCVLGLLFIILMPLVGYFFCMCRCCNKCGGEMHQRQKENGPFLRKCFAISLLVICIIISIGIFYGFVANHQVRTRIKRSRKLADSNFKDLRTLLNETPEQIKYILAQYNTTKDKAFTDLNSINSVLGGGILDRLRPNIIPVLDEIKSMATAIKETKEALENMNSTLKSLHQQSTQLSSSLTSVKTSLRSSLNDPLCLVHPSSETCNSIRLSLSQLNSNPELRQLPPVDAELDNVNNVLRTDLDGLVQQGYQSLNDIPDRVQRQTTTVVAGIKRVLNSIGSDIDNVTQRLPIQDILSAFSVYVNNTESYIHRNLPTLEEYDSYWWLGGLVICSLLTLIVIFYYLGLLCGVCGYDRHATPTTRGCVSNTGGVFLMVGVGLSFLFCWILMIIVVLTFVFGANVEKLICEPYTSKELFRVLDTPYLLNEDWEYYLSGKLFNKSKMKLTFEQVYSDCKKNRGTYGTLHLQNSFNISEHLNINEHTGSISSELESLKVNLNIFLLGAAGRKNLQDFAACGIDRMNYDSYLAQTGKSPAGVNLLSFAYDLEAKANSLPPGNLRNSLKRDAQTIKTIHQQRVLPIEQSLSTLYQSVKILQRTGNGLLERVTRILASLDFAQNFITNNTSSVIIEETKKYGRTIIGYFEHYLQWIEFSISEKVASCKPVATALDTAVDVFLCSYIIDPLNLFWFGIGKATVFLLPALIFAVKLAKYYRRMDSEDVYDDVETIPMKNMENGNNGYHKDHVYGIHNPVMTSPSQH
# B1: No. 11 scFv: soluble scFv of the Hybridoma Clone 7 antibody expressed in E. coli Top10F', SEQ ID NO:58; also used FITC-labeled (protein)
# scFv: MDIVLSQSPAIMSASPGEKVTISCSASSSVSYMYWYQQKPGSSPKPWIYRTSNLASGVPARFSGSGSGTSYSLTISSMEAEDAATYYCQQYHSYPPTFGAGTKLELKSSGGGGSGGGGGGSSRSSLEVKLVESGPELKKPGETVKISCKASGYTFTDYSMHWVNQAPGKGLKWMGWINTETGEPSYADDFKGRFAFSLETSASTAYLQINNLKNEDTATYFCATDYGDYFDYWGQGTTLTVSS
# modifications: optionally FITC-labeled; scFv polypeptide
# B2: Hybridoma Clone 7: monoclonal antibody produced by Hybridoma Clone 7 that specifically binds to human CD133 (antibody, V domains shown)
# VL: DIVLSQSPAIMSASPGEKVTISCSASSSVSYMYWYQQKPGSSPKPWIYRTSNLASGVPARFSGSGSGTSYSLTISSMEAEDAATYYCQQYHSYPPTFGAGTKLELK
# VH: LEVKLVESGPELKKPGETVKISCKASGYTFTDYSMHWVNQAPGKGLKWMGWINTETGEPSYADDFKGRFAFSLETSASTAYLQINNLKNEDTATYFCATDYGDYFDYWGQGTTLTVSS
# Experiments:
# Format in all cases: binding
# CD133 [1] = molecular target: T1, CD133; test: Flow cytometry of FITC-labeled CD133scFv on CD133-transfected HEK293-TLR2 cells; settings: CD133-transfected vs control HEK293-TLR2 cells; listed as CD133scFv
# Protocol: FIG. 4: CD133scFV recognizes the CD133 marker. The CD133scFv was labeled with FITC. An oligonucleotide was prepared from the known GenBank sequence of CD133 and then transfected into HEK293-TLR2 cells using a polyethylenimine (PEI)-DNA complex. The cells were incubated with anti-CD133scFv-FITC complex, washed, and then analyzed by flow cytometry. Data are represented in standard histogram format whereby % positive cells are plotted against fluorescence intensity. […] Controls include transfected cells reacted with empty vector, transfected cells reacted with an isotype control, or untransfected cells that are not reacted with CD133-FITC.
# Ult-Luc or CMV-CD133 pDNA constructs were transfected into HEK293-TLR2 cells using JetPEI transfection reagent according to the manufacturer's instructions (Polyplus Transfection). Briefly, 7.5×10^5 cells/well were seeded in a 6-well plate. Twelve hours later, 2.5 μg of each pDNA were diluted in 5 μl 5% dextrose and mixed with 0.35 μL JetPEI also in 5 μl 5% dextrose. Following incubation for 15 minutes, the transfection mix was added to the cells. […]
# CD133scFv was labeled with FITC at a FITC:scFv ratio of 24:1 (Invitrogen, Carlsbad, Calif.) and dialyzed to remove any free unbound FITC. […] Data are represented in standard histogram format whereby % positive cells are plotted against fluorescence intensity. […]
# CD133 [2] = molecular target: T1, CD133; test: Flow cytometry specificity test on U87, CD133-transfected U87, Caco-2 and GBM6 cells
# Protocol: FIG. 3: Specificity of antibody produced by Hybridoma Clone 7. (A) Flow cytometry. Cells were incubated with primary antibody from either Hybridoma Clone 7 or 293C3 (Militenyi), followed by incubation with a labeled secondary antibody, and then analyzed by flow cytometry. Antibody from the newly developed anti-CD133 Hybridoma Clone 7 (open black histogram) stains very specifically the CD133-overexpressing cells, Caco-2 (iii), GBM6 (iv) and U87 cells transfected with CD133 (ii) but not CD133 negative U87 cells (i). Immunostaining using the monoclonal antibody produced by Hybridoma Clone 7 is compared to clone 293C3 (open grey histogram). Isotype control is represented by solid grey histogram. (B) Tunicamycin mediated glycosylation inhibition. Caco-2 cells were treated with increasing doses of tunicamycin (2.5, 5, 10, 20 μg/ml) for 3 days. DMSO treated cells or untreated cells served as controls. Cells were lysed and then analyzed by Western blotting using the monoclonal antibody produced by Hybridoma Clone 7 or GAPDH antibodies.
# CD133-IRES GFP or CMV GFP constructs were transfected into U87 cells using FuGENE HD transfection reagent according to the manufacturer's instructions. Briefly, cells were plated in a 10 cm dish. Twelve hours later, 10 μg of the pDNA was diluted in serum-free growth DMEM and mixed with 40 μl of the transfection reagent. Following incubation for 15 minutes, the transfection mix was added to the cells. Forty-eight hours later, cells were harvested using non-enzymatic cell dissociation buffer (Sigma-Aldrich Corp., St. Louis, Mo.) for flow cytometry.
# Primary human glioblastoma GBM6 cells, U87, or Caco-2 cells were washed three times and suspended in 100 μl of PBS. […] Cells were further incubated with 10 μl of anti-mouse hylite 647 (1:40 dilution; American Qualex, San Clemente, Calif.) for 30 minutes at 4° C., washed three times, and analyzed by flow cytometry.
# CD133 [3] = molecular target: T1, CD133; test: Immunohistochemistry of human glioma and kidney tissue sections
# Protocol: 5 μm paraffin sections of human kidney or glioblastoma tissue were mounted onto charged slides. The sections were deparaffinized and rehydrated using standard methods, rinsed in running tap-water and placed in a PBS bath for five minutes. The slides were then incubated in a pre-heated steamer bath with staining dish containing EDTA buffer (pH 8.0) for 30 minutes and then cooled for 20 minutes. The slides were washed with PBS (pH 7.4) for minimum of five minutes and then subjected to following incubation steps: blocking with serum-free background Sniper (Biocare Medical. Concord, Calif.), primary antibody at a 1:200 dilution of hybridoma supernatant at 4° C. overnight, Leica Bond post primary. Leica Bond polymer, and DAB chromagen developer. The sections were rinsed well, counterstained with hematoxylin, dehydrated, sealed with a cover slip and imaged.
Molecule,reaction of FITC-labeled scFv with cells (CD133 [1]),flow cytometry staining of non-transfected U87 cells (CD133 [2]; CD133^low/- U87 cells),flow cytometry staining of cells that endogenously express CD133 (CD133 [2]; Caco-2 and GBM6 cells),flow cytometry staining of CD133-transfected U87 cells (CD133 [2]; U87 transfected with human CD133 cDNA),immunohistochemical staining (CD133 [3])
B1,Only the CD133-transfected cells reacted; also recorded: Only the CD133 transfected cells reacted,,,,
B2,,did not appreciably stain,able to immunostain,labeled CD133-transfected cells,membrane-specific staining

# Reference: patent US11098109B2, “Single-chain variable fragment anti-CD133 antibodies and uses thereof” (REGENTS OF THE UNIVERSITY OF MINNESOTA, priority 2010, dated 2021)
